The target of assay [1] is human PD-1^ECD-hFc protein (Immunogen A) (human) (UniProt Q15116). Nature of the assay: ELISA, coated PD-1ECD-hFc; biotinylated protein 1 ug/mL. (In an ELISA, binding on a coated surface is turned into a signal by an enzyme label.)
Assay [2] shares this target. Briefly: ELISA, coated PD-1ECD-hFc; biotinylated protein 0.0003 ug/mL.
Assay [3] has the same target. Briefly: ELISA, coated PD-1ECD-hFc; biotinylated protein 0.0001 ug/mL.
Assay [4] has the same target. Briefly: ELISA, coated PD-1ECD-hFc; biotinylated protein 0.0016 ug/mL.
The target is the same in assay [5]. Briefly: ELISA, coated PD-1ECD-hFc; biotinylated protein 0.2 ug/mL.
The target is the same in assay [6]. Briefly: ELISA, coated PD-1ECD-hFc; biotinylated protein 0.04 ug/mL.
The target is the same in assay [7]. Briefly: ELISA, coated PD-1ECD-hFc; biotinylated protein 0.008 ug/mL.
Assay [8] shares this target. Briefly: ELISA, coated PD-1ECD-hFc; biotinylated protein 0.00001 ug/mL.
Assay [9] deals with cyno PD-1^ECD-hFc protein (cyno monkey) (UniProt B0LAJ3). Briefly: ELISA, coated cyno PD-1ECD-hFc; antibody 0.0001 nM.
The target of assay [10] is human PD-1^ECD-hFc protein (Immunogen A) (human) (UniProt Q15116). Nature of the assay: ELISA, coated human PD-1ECD-hFc; antibody 0.001 nM.
Assay [11] shares this target. Nature of the assay: ELISA, coated human PD-1ECD-hFc; antibody 0.00001 nM.
The target in assay [12] is full length human PD-1 on cells (human) (UniProt Q15116). Nature of the assay: flow cytometry, CHO-K1-hPD-1 cells; antibody 0.01 nM. For orientation: Flow cytometry measures light scatter and fluorescence of single cells or particles in a stream.
The target in assay [13] is cyno PD-1^ECD-hFc protein (cyno monkey) (UniProt B0LAJ3). Nature of the assay: ELISA, coated cyno PD-1ECD-hFc; antibody 0.00001 nM.
Assay [14] concerns the target full length human PD-1 on cells (human) (UniProt Q15116). Briefly: flow cytometry, CHO-K1-hPD-1 cells; antibody 0.00001 nM.
The target in assay [15] is human PD-1^ECD-hFc protein (Immunogen A) (human) (UniProt Q15116). Briefly: ELISA, coated human PD-1ECD-hFc; antibody 0.0001 nM.
Assay [16] deals with full length human PD-1 on cells (human) (UniProt Q15116). Nature of the assay: flow cytometry, CHO-K1-hPD-1 cells; antibody 0.0001 nM.
For assay [17], the target named is cyno PD-1^ECD-hFc protein (cyno monkey) (UniProt B0LAJ3). Nature of the assay: ELISA, coated cyno PD-1ECD-hFc; antibody 0.001 nM.
Assay [18] addresses full length human PD-1 on cells (human) (UniProt Q15116). Nature of the assay: flow cytometry, CHO-K1-hPD-1 cells; antibody 0.001 nM.
Assay [19] concerns the target human PD-1, full length, on cells (human) (UniProt Q15116). Nature of the assay: cell-based or functional assay.
The target of assay [20] is B7-1 (human) (UniProt P33681). Nature of the assay: ELISA, coated protein 1 ug/mL; antibody concentration not stated.
The target in assay [21] is ICOS (human) (UniProt Q9Y6W8). The assay is described as above.
In assay [22] the target is CD28 (human) (UniProt P10747). The description is as above.
The target of assay [23] is human PD-1^ECD-hFc protein (Immunogen A) (human) (UniProt Q15116). The assay is described as above.
In assay [24] the target is CTLA4 (human) (UniProt P16410). The assay is described as above.
Chain of CTLA4 (human) (P16410 37-162 limits assumed): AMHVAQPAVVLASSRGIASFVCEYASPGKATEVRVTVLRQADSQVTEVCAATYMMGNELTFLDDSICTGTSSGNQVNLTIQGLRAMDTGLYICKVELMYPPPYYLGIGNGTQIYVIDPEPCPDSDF

Chain of cyno PD-1^ECD-hFc protein (cyno monkey) (B0LAJ3 entry or part of it limits assumed): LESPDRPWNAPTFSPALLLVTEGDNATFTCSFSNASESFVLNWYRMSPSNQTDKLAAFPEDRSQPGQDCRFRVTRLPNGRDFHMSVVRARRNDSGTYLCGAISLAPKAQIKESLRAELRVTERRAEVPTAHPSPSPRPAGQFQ
Chain of human PD-1, full length, on cells (human) (Q15116 25-288): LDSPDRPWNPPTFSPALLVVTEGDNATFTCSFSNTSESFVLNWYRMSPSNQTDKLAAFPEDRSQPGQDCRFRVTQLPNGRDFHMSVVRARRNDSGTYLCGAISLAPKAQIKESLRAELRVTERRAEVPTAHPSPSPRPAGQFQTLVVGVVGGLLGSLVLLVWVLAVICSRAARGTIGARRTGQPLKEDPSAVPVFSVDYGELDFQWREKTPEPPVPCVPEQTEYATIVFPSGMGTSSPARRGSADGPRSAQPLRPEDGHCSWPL
Chain of full length human PD-1 on cells (human) (Q15116 25-288 limits assumed): as the sequence (Q15116 25-288) above
Chain of human PD-1^ECD-hFc protein (Immunogen A) (human) (Q15116 25-167): as the sequence (B0LAJ3 entry or part of it limits assumed) above, with E2D, A10P, L19V, A35T, R75Q counted along it
Chain of B7-1 (human) (P33681 35-242 limits assumed): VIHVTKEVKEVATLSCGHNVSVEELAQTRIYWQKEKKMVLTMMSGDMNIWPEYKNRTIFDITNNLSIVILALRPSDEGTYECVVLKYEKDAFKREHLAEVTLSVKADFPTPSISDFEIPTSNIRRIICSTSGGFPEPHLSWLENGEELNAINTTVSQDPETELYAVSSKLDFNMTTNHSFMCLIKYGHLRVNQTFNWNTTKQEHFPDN
Chain of CD28 (human) (P10747 19-152 limits assumed): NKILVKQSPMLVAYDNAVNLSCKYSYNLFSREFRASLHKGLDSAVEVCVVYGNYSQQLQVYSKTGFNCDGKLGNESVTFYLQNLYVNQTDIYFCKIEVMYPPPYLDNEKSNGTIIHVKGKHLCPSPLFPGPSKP
Chain of ICOS (human) (Q9Y6W8 21-140 limits assumed): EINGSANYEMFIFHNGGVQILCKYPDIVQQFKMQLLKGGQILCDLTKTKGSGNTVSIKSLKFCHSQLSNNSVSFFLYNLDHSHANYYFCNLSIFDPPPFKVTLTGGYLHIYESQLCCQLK

Take “control protein (biotinylated non-PD-L1^ECD-hFc)”: the OD450 nm was 0.13 in assay [1]; 0.195 in assay [2]; 0.32 in assay [3]; 0.195 in [4]; 0.095 in assay [5]; 0.09 in assay [6]. In addition, the OD450 nm in assay [7] turned out to be 0.14; in assay [8] it was 0.205.
Consider IgG control (human IgG) (antibody), for which the OD450 nm in [9] was 0.11; in [10], 0.311; in [11], 0.287; in [13], 0.116; in assay [15] it was 0.298; in [17], 0.106. In addition, the OD450 nm in assay [20] was 0.07; in assay [21] it was 0.142; in assay [22], 0.064; in [23], 0.082; in assay [24] it was 0.062. Also, the Mean fluorescence intensity in [12] turned out to be 2.9; in [14] it was 2.7; in assay [16] it was 3.1; in assay [18] it was 2.9. The substance further displayed an IFN-γ release, mixed lymphocyte reaction (PBMC donor-2), antibody 0.01 µg/mL in [19] of 353 pg/mL. Besides, the IFN-γ release, mixed lymphocyte reaction (PBMC donor-2), antibody 0.1 µg/mL in [19] stood at 281 pg/mL. Further, the IFN-γ release, mixed lymphocyte reaction (PBMC donor-2), antibody 1 µg/mL in [19] worked out at 127 pg/mL.
